Data reported in publication PMC4786428, “Recombinational branch migration by the RadA/Sms paralog of RecA in Escherichia coli”.

Biological target: T1, RadA S372A (Escherichia coli, UniProt P24554 1-460, S372A)
T1 sequence: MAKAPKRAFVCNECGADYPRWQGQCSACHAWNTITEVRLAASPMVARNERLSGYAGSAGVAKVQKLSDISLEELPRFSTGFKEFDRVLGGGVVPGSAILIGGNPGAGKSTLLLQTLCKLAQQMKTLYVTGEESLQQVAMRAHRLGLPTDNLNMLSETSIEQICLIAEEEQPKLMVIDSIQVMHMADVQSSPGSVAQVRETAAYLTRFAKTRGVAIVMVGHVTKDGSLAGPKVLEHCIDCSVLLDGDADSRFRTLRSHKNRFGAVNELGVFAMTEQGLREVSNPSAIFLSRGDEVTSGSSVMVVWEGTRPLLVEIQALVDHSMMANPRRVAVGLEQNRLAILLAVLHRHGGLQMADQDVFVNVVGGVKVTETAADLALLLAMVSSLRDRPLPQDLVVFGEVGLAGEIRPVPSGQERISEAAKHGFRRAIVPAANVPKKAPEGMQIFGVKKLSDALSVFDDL
Assay: EMSA; 1 mM ADP; retains DNA binding; 50 mM Tris-HCl pH 7.5, 10 mM MgCl2, 0.1 mM EDTA, 75 mM NaCl, 5 mM DTT, 100 ug/ml BSA, 1 mM nucleotide, 100 fmol DNA, 37 C for 20-30 min; 6% TBE polyacrylamide gel at room temperature
Details: protein: recombinant; tags: eXact tag cleaved; 2 extra N-terminal residues Thr-Ser remain; chain copies: 6

TTTTTTTTTTTTTTTTTTTTTTTTTTTTTT (ssDNA) [poly(dT)30]
binding result: binds
